From patent publication US20140017253A1 (ONCOMED PHARMACEUTICALS, published 2014) come the findings set out here.

Residue numbers refer to the chain shown, from its start. Bounds are passed on as bounds.

Assay [1] addresses T1, LGR5-Fc fusion protein (human, UniProt O75473 22-564).
T1 construct: range 22-564; Expressed in insect cells with baculovirus, purified on protein A; also called soluble LGR5-Fc; not shown: human Fc
T1 sequence (looked up): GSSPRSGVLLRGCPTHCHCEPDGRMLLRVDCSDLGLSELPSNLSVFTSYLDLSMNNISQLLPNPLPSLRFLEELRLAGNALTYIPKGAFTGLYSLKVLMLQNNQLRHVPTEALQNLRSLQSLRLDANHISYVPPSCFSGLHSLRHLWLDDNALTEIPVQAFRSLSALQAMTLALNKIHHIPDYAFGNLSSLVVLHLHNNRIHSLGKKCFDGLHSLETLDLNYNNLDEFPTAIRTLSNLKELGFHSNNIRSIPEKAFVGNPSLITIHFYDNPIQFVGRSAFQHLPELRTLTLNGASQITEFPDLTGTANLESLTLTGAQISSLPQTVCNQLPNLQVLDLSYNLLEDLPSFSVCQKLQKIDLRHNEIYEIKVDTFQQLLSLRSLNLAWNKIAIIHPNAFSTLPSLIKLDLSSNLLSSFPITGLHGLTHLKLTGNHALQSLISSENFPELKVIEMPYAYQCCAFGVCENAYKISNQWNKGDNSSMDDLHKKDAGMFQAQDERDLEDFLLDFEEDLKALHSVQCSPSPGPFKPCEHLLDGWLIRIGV
Briefly: SPR (Biacore 2000), RSPO-Fc amine-coupled to CM5 chip, soluble LGR5-Fc injected 100-0.78 nM. The method, then: Binding affinities between RSPO proteins and LGR5 were analyzed by surface plasmon resonance. A soluble LGR5-Fc construct was generated using standard recombinant DNA techniques. Specifically, amino acids 1-564 of human LGR5 were ligated in frame to human Fc and the recombinant LGR5-Fc fusion protein was expressed in insect cells using baculovirus. The LGR5-Fc fusion protein was purified from the insect medium using protein A chromatography. Cleavage of the LGR5 signal sequence results in a mature LGR5-Fc fusion protein containing amino acids 22-564 of LGR5. […] Two-fold dilutions of soluble LGR5-Fc were injected over the chip surface (100 nM to 0.78 nM). Kinetic data were collected over time using a Biacore 2000 system from Biacore Life Sciences (GE Healthcare) and the data were fit using the simultaneous global fit equation to yield affinity constants (KD values) for each RSPO protein (Table 3).
For orientation: SPR reads the build-up and loss of mass on a sensor chip optically.

The target in assay [2] is T2, human RSPO3 (recombinant, R&D Systems) (human, UniProt Q9BXY4 22-272).
T2 sequence: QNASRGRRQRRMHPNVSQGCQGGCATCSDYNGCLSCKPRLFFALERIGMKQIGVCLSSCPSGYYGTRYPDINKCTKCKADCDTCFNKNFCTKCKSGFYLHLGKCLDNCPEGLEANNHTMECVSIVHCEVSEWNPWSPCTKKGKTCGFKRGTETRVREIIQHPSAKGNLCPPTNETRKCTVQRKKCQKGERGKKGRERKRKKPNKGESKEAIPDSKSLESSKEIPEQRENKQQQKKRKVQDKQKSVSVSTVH
Briefly: SPR (Biacore 2000), antibody captured by goat anti-human IgG on CM5 chip, human RSPO3 injected 300-37.5 nM. The method, then:
The method used was different than described in Example 3. A goat anti-human IgG antibody was coupled to a carboxymethyl-dextran (CM5) SPR chip using standard amine-based chemistry (NHS/EDC) and blocked with ethanolamine. Antibodies (purified antibody or culture supernatant) were diluted to a concentration of 10 μg/ml in HBS-P-BSA (0.01M HEPES pH7.4, 0.15M NaCl, 0.005% v/v Polysorbate 20, 100 μg/ml BSA) and captured onto the chip via the anti-human IgG antibody. […] After each antigen injection 5 μl of 100 mM H₃PO₄ was injected to remove the antigen-antibody complex and a subsequent injection performed. Kinetic data were collected over time and were fit using the simultaneous global fit equation to yield affinity constants (KD values) for each antibody (Table 4).

Assay [3] addresses T3, recombinant human RSPO3 protein, biotinylated (human, UniProt Q9BXY4 22-272, biotinylated (sites not given)).
T3 sequence: T2 sequence
Briefly: SPR (Biacore 2000), biotinylated human RSPO3 captured on streptavidin chip, antibody injected 100-0.78 nM. As to the method:
The antibodies were serially diluted 2-fold from 100 nM to 0.78 nM in HBS-P (0.01M HEPES pH 7.4, 0.15M NaCl, 0.005% v/v Surfactant P20) and were injected over the chip surface. Kinetic data were collected over time and were fit using the simultaneous global fit equation to yield affinity constants (KD values) for each antibody.

B1: RSPO3-Fc fusion protein (Fc fusion)
chain: T2 sequence
notes: Full-length human RSPO3 ligated in-frame to a human Fc region, expressed in insect cells; not shown: human Fc region
The molecule B1 showed an equilibrium dissociation constant (Kd) in assay [1] below 1 nM.

B2: RSPO4-Fc fusion protein (Fc fusion, not shown: a dimerising Fc or GST; small tags and cut ends)
chain: NRRKKQVGTGLGGNCTGCIICSEENGCSTCQQRLFLFIRREGIRQYGKCLHDCPPGYFGIRGQEVNRCKKCGATCESCFSQDFCIRCKRQFYLYKGKCLPTCPPGTLAHQNTRECQGECELGPWGGWSPCTHNGKTCGSAWGLESRVREAGRAGHEEAATCQVLSESRKCPIQRPCPGERSPGQKKGRKDRRPRKDRKLDRRLDVRPRQPGLQP
notes: Full-length human RSPO4 ligated in-frame to a human Fc region, expressed in insect cells
B2 showed a dissociation constant (Kd) in assay [1] of 73 nM.

B3: humanized anti-RSPO3 antibody h131R007 (antibody, human IgG2, kappa)
heavy: QVQLVQSGAEVKKPGASVKVSCKASGYTFTDYSIHWVRQAPGQGLEWIGYIYPSNGDSGYNQKFKNRVTMTRDTSTSTAYMELSRLRSEDTAVYYCATYFANNFDYWGQGTTLTVSSASTKGPSVFPLAPCSRSTSESTAALGCLVKDYFPEPVTVSWNSGALTSGVHTFPAVLQSSGLYSLSSVVTVPSSNFGTQTYTCNVDHKPSNTKVDKTVERKCCVECPPCPAPPVAGPSVFLFPPKPKDTLMISRTPEVTCVVVDVSHEDPEVQFNWYVDGVEVHNAKTKPREEQFNSTFRVVSVLTVVHQDWLNGKEYKCKVSNKGLPAPIEKTISKTKGQPREPQVYTLPPSREEMTKNQVSLTCLVKGFYPSDIAVEWESNGQPENNYKTTPPMLDSDGSFFLYSKLTVDKSRWQQGNVFSCSVMHEALHNHYTQKSLSLSPGK
light: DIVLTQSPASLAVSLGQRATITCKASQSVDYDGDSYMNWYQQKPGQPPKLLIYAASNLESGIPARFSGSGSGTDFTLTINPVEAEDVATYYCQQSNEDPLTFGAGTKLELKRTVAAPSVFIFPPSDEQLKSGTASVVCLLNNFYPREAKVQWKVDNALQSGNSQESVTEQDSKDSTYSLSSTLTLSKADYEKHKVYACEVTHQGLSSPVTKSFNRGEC
notes: IgG2; also called h131R005/131R007; h131R005
In the case of B3, the Kd in assay [2] came out at 0.654 nM.

B4: RSPO2-Fc fusion protein (Fc fusion)
chain: QGNRWRRSKRASYVSNPICKGCLSCSKDNGCSRCQQKLFFFLRREGMRQYGECLHSCPSGYYGHRAPDMNRCARCRIENCDSCFSKDFCTKCKVGFYLHRGRCFDECPDGFAPLEETMECVEGCEVGHWSEWGTCSRNNRTCGFKWGLETRTRQIVKKPVKDTIPCPTIAESRRCKMTMRHCPGGKRTPKAKEKRNKKKKRKLIERAQEQHSVFLATDRANQ
notes: Full-length human RSPO2 ligated in-frame to a human Fc region, expressed in insect cells; not shown: human Fc region
The molecule B4 gave a Kd in assay [1] of 14 nM.

B5: humanized anti-RSPO3 antibody h131R011 (antibody, human IgG2, kappa, V domains shown)
VH: QVQLVQSGAEVKKPGASVKVSCKASGYTFTDYSIHWVRQAPGQGLEWIGYIYPSNGDSGYNQKFKNRVTMTRDTSTSTAYMELSRLRSEDTAVYYCATYFANNFDYWGQGTTLTVSS
VL: DIQMTQSPSSLSASVGDRVTITCKASQSVDYDGDSYMNWYQQKPGKAPKLLIYAASNLESGVPSRFSGSGSGTDFTLTISPVQAEDFATYYCQQSNEDPLTFGAGTKLELKR
notes: IgG2; also called h131R011 (IgG2)
With B5, the dissociation constant (Kd) in assay [2] is 0.686 nM.

B6: anti-RSPO3 antibody 131R003 (antibody, human IgG2, kappa, V domains shown)
VH: QVQLKQSGPELVKPGASVKISCKASGYTFTDYSIHWVKQNHGKSLDWIGYIYPSNGDSGYNQKFKNRATLTVDTSYSTAYLEVRRLTFEDSAVYYCATYFANYFDYWGQGTTLTVSS
VL: DIVLTQSPASLAVSLGQRATISCKASQSVDYDGDSYMNWYQQKPGQPPKLLIYAASNLESGIPARFSGSGSGTDFTLNIHPVEEEDAATYYCQQSNEDPLTFGAGTKLELKR
notes: Same light chain as 131R002; also called parental 131R003; 131R003 (IgG2)
For the molecule B6, the results for the dissociation constant Kd in assay [2] and in assay [3] were 1.9 nM and 7.3 nM, respectively.

B7: anti-RSPO3 antibody 131R002 (antibody, human IgG2, kappa, V domains shown)
VH: B6 VH with K5Q, Q6E, Y76S
VL: B6 VL
notes: Same light chain as 131R003; also called 131R002 (IgG2)
B7: the Kd in assay [2] came to 1.3 nM; in assay [3] it was 8.2 nM.

B8: 131R003CDR3 variant (antibody, human IgG2, kappa, V domains shown)
VH: B6 VH with Y103N
VL: B6 VL
notes: also called 131R003 CDR3 variant (IgG2); 131R003 Heavy chain - Variant 1
Consider B8, for which the Kd in assay [2] came out at 1.7 nM.

B9: RSPO1-Fc fusion protein (Fc fusion)
chain: SRGIKGKRQRRISAEGSQACAKGCELCSEVNGCLKCSPKLFILLERNDIRQVGVCLPSCPPGYFDARNPDMNKCIKCKIEHCEACFSHNFCTKCKEGLYLHKGRCYPACPEGSSAANGTMECSSPAQCEMSEWSPWGPCSKKQQLCGFRRGSEERTRRVLHAPVGDHAACSDTKETRRCTVRRVPCPEGQKRRKGGQGRRENANRNLARKESKEAGAGSRRRKGQQQQQQQGTVGPLTSAGPA
notes: not shown: human Fc region
B9: the Kd in assay [1] came out at 110 nM.

What is called Kd is the free concentration of one partner at which half of the binding sites on the other are occupied at equilibrium, for simple one-to-one binding.
